In general, IC50 refers to the concentration at which inhibition is half-maximal. The low end stands for higher potency, the high end for lower potency.

Consider one molecule from patent US11702475B2, “Cysteine engineered fibronectin type III domain binding molecules” (Janssen Biotech, Inc., priority 2013, dated 2023).

One experiment has as its target EGFR (Homo sapiens, UniProt P00533). The experiment can be described thus: Inhibition of EGF-stimulated EGFR phosphorylation in A431 cells (phospho-EGFR assay). Type of experiment: cell-based. The conditions noted are these: 50 ng/mL EGF, EGFR Tyr1173. Here is the method: Purified EGFR-binding FN3 domains were tested for their ability to inhibit EGF-stimulated phosphorylation of EGFR in A431 cells at a single concentration. EGFR phosphorylation was monitored using the EGFR phospho(Tyr1173) kit (Meso Scale Discovery). Cells were plated at 20,000/well in clear 96-well tissue culture-treated plates (Nunc) in 100 μL/well of RPMI medium (Gibco) containing GlutaMAX™ with 10% fetal bovine serum (FBS) (Gibco) and allowed to attach overnight at 37° C. in a humidified 5% CO2 atmosphere. Culture medium was removed completely and cells were starved overnight in 100 μL/well of medium containing no FBS at 37° C. in a humidified 5% CO2 atmosphere. […] Signals were detected by addition of 150 μL/well of Read Buffer (Meso Scale Discovery) and reading on a SECTOR® Imager 6000 instrument (Meso Scale Discovery) using manufacturer-installed assay-specific default settings. Percent inhibition of the EGF-stimulated positive control signal was calculated for each EGFR-binding FN3 domain.
Data were plotted as electrochemiluminescence signal against the logarithm of the FN3 domain molar concentration and IC50 values were determined by fitting data to a sigmoidal dose response with variable slope using GraphPad Prism 4 (GraphPad Software). […]

For experiment [1], the target named is T1, EGFR on A431 cells (EGF binding) (Homo sapiens, UniProt P00533).
T1 construct: A431 cells (American Type Culture Collection, cat. #CRL-1555) over-express EGFR; host or cells: A431
Nature of the experiment: A431 cell EGF competition assay. The conditions noted are these: biotinylated EGF 30 ng/mL. Here is the method:
To better characterize the mechanism of EGFR binding, the ability of various identified FN3 domain clones to bind EGFR in an EGF-competitive manner was measured using A431 cells and run in parallel with the A431 binding assay screen. A431 cells were plated at 5,000/well in opaque black 96-well plates and allowed to attach overnight at 37° C., in a humidified 5% CO2 atmosphere. Cells were incubated with 50 μL/well of 1:1,000 diluted bacterial lysate for 1 hour at room temperature in triplicate plates. Biotinylated EGF (Invitrogen, cat. #E-3477) was added to each well to give a final concentration of 30 ng/mL and incubated for 10 minutes at room temperature. Cells were washed 3 times with 150 μL/well of FACS stain buffer. […] Cells were washed 3 times with 150 μL/well of FACS stain buffer, after which wells were filled with 100 μL of FACS stain buffer and read for fluorescence at 600 nm using an Acumen eX3 reader.
A431 cells were plated at 5,000/well in opaque black 96-well plates and allowed to attach overnight at 37° C., in a humidified 5% CO2 atmosphere. […] Cells were washed 3 times with 150 μL/well of FACS stain buffer, after which wells were filled with 100 μL of FACS stain buffer and read for fluorescence at 600 nm using an Acumen eX3 reader. […]

B1: P54AR4-47: EGFR-binding FN3 domain, SEQ ID NO: 20 (protein)
chain: LPAPKNLVVSEVTEDSLRLSWGYNGDHFDSFLIQYQESEKVGEAINLTVPGSERSYDLTGLKPGTEYTVSIYGVHNVYKDTNMRGLPLSAEFTT
modifications: EGFR binding FN3 domain
For the molecule B1, the IC50 was found to be 295 nM with EGFR and 7.1 nM in experiment [1].
